Experimental data: patent US20100016556A1 (published 2010)

Biological target: T1, CD3 on Jurkat cells (human, UniProt P07766 23-207)
T1 construct: whole, on cells; the CD3 complex has several chains; also called T cells (Jurkat); J6 cells
Test: binding to J6 cells; method not described

T1 sequence (P07766 23-207): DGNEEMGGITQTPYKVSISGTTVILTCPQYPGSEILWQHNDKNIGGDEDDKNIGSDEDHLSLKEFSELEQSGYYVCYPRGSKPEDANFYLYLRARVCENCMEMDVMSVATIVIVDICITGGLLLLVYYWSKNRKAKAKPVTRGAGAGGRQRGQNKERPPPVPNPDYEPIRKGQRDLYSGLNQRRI

- Kd: 140 nM
B1: BsF(ab')2 v1 (anti-p185HER2/anti-CD3 v1) (bispecific antibody)
chain 1: not shown
chain 2: not shown
chain 3: DIQMTQSPSSLSASVGDRVTITCRASQDIRNYLNWYQQKPGKAPKLLIYYTSRLESGVPSRFSGSGSGTDYTLTISSLQPEDFATYYCQQGNTLPWTFGQGTKVEIK
chain 4: EVQLVESGGGLVQPGGSLRLSCAASGYSFTGYTMNWVRQAPGKGLEWVALINPYKGVTTYADSVKGRFTISVDKSKNTAYLQMNSLRAEDTAVYYCARSGYYGDSDWYFDVWGQGTLVTVSS
modifications: hinge Cys thioether-linked through o-PDM to the other Fab' arm
